Reference: patent publication US20110166036A1

Biological target: recombinant human sortilin (human) (UniProt Q99523)
Experiment: SPR (BIAcore), sortilin immobilized on CM5 chip, ApoB 10, 20, 50 nM

Sequence of recombinant human sortilin (human) (Q99523 78-755 limits assumed, form in doubt): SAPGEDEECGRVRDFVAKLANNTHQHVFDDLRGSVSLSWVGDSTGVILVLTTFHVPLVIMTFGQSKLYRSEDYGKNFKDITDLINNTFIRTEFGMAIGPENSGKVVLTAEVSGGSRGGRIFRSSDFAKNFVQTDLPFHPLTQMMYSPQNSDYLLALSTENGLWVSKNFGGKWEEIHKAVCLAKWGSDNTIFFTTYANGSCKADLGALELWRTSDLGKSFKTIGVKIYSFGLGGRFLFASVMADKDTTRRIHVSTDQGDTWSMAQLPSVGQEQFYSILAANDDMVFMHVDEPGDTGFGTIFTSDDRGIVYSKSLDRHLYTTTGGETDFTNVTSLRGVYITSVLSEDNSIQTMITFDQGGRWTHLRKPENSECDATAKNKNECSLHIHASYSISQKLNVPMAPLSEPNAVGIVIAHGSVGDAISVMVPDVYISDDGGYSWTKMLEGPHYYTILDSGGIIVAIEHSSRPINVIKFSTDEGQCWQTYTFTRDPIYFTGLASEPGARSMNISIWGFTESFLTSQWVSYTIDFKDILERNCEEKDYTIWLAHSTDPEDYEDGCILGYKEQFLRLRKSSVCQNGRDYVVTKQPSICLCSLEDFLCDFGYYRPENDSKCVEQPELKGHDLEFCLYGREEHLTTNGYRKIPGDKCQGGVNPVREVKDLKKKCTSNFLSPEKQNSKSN

Kd: 0.4 nM
Substance: ApoB (ligand)
